Experimental data taken from patent US20220153847A1 (Chugai, published 2022).

Legend:
[1] = target: DQ2.5/alpha 1 gliadin peptide on IHW9023 cells (human); assay: cell-based or functional assay
[2] = target: DQ2.5/alpha 2 gliadin peptide on IHW9023 cells (human); assay: cell-based or functional assay
[3] = target: DQ2.5/omega 1 gliadin peptide on IHW9023 cells (human); assay: cell-based or functional assay
[4] = target: DQ2.5/alpha 1b gliadin peptide on IHW9023 cells (human); assay: cell-based or functional assay
[5] = target: T1, HLA-DQ2.5/33mer gliadin peptide complex on Ba/F3 cells (human); assay: FACS, Ba/F3 cells; IC17=0%, DQN0139bb=100%;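 further: flow cytometric binding of anti-HLA-DQ antibodies, each applied at 5 µg/mL for 30 min at room temperature, to Ba/F3 cell lines displaying HLA-DQ–peptide complexes; antibody tested at 5 microgram/mL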
T1 construct: whole, on cells; also called Ba/F3-HLA-DQ2.5/33mer gliadin
Source text: (§1) The binding of anti-HLA-DQ antibodies to Ba/F3-HLA-DQ2.5, Ba/F3-HLA-DQ2.2, Ba/F3-HLA-DQ7.5, Ba/F3-HLA-DQ8, Ba/F3-HLA-DQ5.1, Ba/F3-HLA-DQ6.3, Ba/F3-HLA-DQ7.3, Ba/F3-HLA-DR, Ba/F3-HLA-DP, Ba/F3-HLA-DQ2.5/CLIP, Ba/F3-HLA-DQ2.5/HBV, Ba/F3-HLA-DQ2.5/Salmonella, Ba/F3-HLA-DQ2.5/TPO, Ba/F3-HLA-DQ2.5/M. bovis, Ba/F3-HLA-DQ2.5/alpha 1 gliadin, Ba/F3-HLA-DQ2.5/alpha 2 gliadin, Ba/F3-HLA-DQ2.5/gamma 1 gliadin, Ba/F3-HLA-DQ2.5/gamma 2 gliadin, Ba/F3-HLA-DQ2.5/omega 1 gliadin, Ba/F3-HLA-DQ2.5/omega 2 gliadin, Ba/F3-HLA-DQ2.5/BC hordein, Ba/F3-HLA-DQ2.5/alpha 3 gliadin, Ba/F3-HLA-DQ2.5/alpha 1b gliadin, Ba/F3-HLA-DQ2.5/gamma 4b gliadin, Ba/F3-HLA-DQ2.5/avenin 1, Ba/F3-HLA-DQ2.5/avenin 2, Ba/F3-HLA-DQ2.5/avenin 3, Ba/F3-HLA-DQ2.5/hordein 1, Ba/F3-HLA-DQ2.5/hordein 2, Ba/F3-HLA-DQ2.5/secalin 1, Ba/F3-HLA-DQ2.5/secalin 2, Ba/F3-HLA-DQ2.5/14mer 1, Ba/F3-HLA-DQ2.5/33mer gliadin, Ba/F3-HLA-DQ2.5/26mer gliadin, was tested. 5 microgram/mL of each of the anti-HLA-DQ antibodies was incubated with each cell line for 30 minutes at room temperature and washed with FACS buffer (2% FBS, 2 mM EDTA in PBS).

[6] = target: T2, HLA-DQ2.5/alpha 1 gliadin peptide complex on Ba/F3 cells (human); assay: FACS, Ba/F3 cells; IC17=0%, DQN0139bb=100%;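 further: flow cytometric binding of anti-HLA-DQ antibodies, each applied at 5 µg/mL for 30 min at room temperature, to Ba/F3 cell lines displaying HLA-DQ–peptide complexes; antibody tested at 5 microgram/mL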
T2 construct: whole, on cells; also called Ba/F3-HLA-DQ2.5/alpha 1 gliadin; HLA-DQ2.5/a1 gliadin
Source text: as §1

[7] = target: T3, HLA-DQ2.5/alpha 2 gliadin peptide complex on Ba/F3 cells (human); assay: FACS, Ba/F3 cells; IC17=0%, DQN0139bb=100%;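 further: flow cytometric binding of anti-HLA-DQ antibodies, each applied at 5 µg/mL for 30 min at room temperature, to Ba/F3 cell lines displaying HLA-DQ–peptide complexes; antibody tested at 5 microgram/mL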
T3 construct: whole, on cells; also called Ba/F3-HLA-DQ2.5/alpha 2 gliadin; HLA-DQ2.5/a2 gliadin
Source text: as §1

[8] = target: T4, HLA-DQ2.5/gamma 1 gliadin peptide complex on Ba/F3 cells (human); assay: FACS, Ba/F3 cells; IC17=0%, DQN0139bb=100%;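 further: flow cytometric binding of anti-HLA-DQ antibodies, each applied at 5 µg/mL for 30 min at room temperature, to Ba/F3 cell lines displaying HLA-DQ–peptide complexes; antibody tested at 5 microgram/mL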
T4 construct: whole, on cells; also called Ba/F3-HLA-DQ2.5/gamma 1 gliadin; HLA-DQ2.5/g1 gliadin
Source text: as §1

[9] = target: T5, HLA-DQ2.5/omega 1 gliadin peptide complex on Ba/F3 cells (human); assay: FACS, Ba/F3 cells; IC17=0%, DQN0139bb=100%
T5 construct: whole, on cells; also called Ba/F3-HLA-DQ2.5/omega 1 gliadin; HLA-DQ2.5/w1 gliadin
Source text: as §1

[10] = target: T6, HLA-DQ2.5/alpha 3 gliadin peptide complex on Ba/F3 cells (human); assay: FACS, Ba/F3 cells; IC17=0%, DQN0139bb=100%
T6 construct: whole, on cells; also called Ba/F3-HLA-DQ2.5/alpha 3 gliadin; HLA-DQ2.5/a3 gliadin
Source text: as §1

[11] = target: T7, HLA-DQ2.5/alpha 1b gliadin peptide complex on Ba/F3 cells (human); assay: FACS, Ba/F3 cells; IC17=0%, DQN0139bb=100%
T7 construct: whole, on cells; also called Ba/F3-HLA-DQ2.5/alpha 1b gliadin; HLA-DQ2.5/a1b gliadin
Source text: as §1

[12] = target: T8, HLA-DQ2.5/gamma 4b gliadin peptide complex on Ba/F3 cells (human); assay: FACS, Ba/F3 cells; IC17=0%, DQN0139bb=100%
T8 construct: whole, on cells; also called Ba/F3-HLA-DQ2.5/gamma 4b gliadin; HLA-DQ2.5/g4b gliadin
Source text: as §1

[13] = target: T9, HLA-DQ2.5/avenin 1 peptide complex on Ba/F3 cells (human); assay: FACS, Ba/F3 cells; IC17=0%, DQN0139bb=100%
T9 construct: whole, on cells; also called Ba/F3-HLA-DQ2.5/avenin 1
Source text: as §1

[14] = target: T10, HLA-DQ2.5/avenin 2 peptide complex on Ba/F3 cells (human); assay: FACS, Ba/F3 cells; IC17=0%, DQN0139bb=100%
T10 construct: whole, on cells; also called Ba/F3-HLA-DQ2.5/avenin 2
Source text: as §1

[15] = target: T11, HLA-DQ2.5/avenin 3 peptide complex on Ba/F3 cells (human); assay: FACS, Ba/F3 cells; IC17=0%, DQN0139bb=100%
T11 construct: whole, on cells; also called Ba/F3-HLA-DQ2.5/avenin 3
Source text: as §1

[16] = target: T12, HLA-DQ2.5/hordein 1 peptide complex on Ba/F3 cells (human); assay: FACS, Ba/F3 cells; IC17=0%, DQN0139bb=100%
T12 construct: whole, on cells; also called Ba/F3-HLA-DQ2.5/hordein 1
Source text: as §1

[17] = target: T13, HLA-DQ2.5/secalin 1 peptide complex on Ba/F3 cells (human); assay: FACS, Ba/F3 cells; IC17=0%, DQN0139bb=100%
T13 construct: whole, on cells; also called Ba/F3-HLA-DQ2.5/secalin 1
Source text: as §1

[18] = target: T14, HLA-DQ2.5/secalin 2 peptide complex on Ba/F3 cells (human); assay: FACS, Ba/F3 cells; IC17=0%, DQN0139bb=100%
T14 construct: whole, on cells; also called Ba/F3-HLA-DQ2.5/secalin 2
Source text: as §1

[19] = target: T15, HLA-DQ2.5/26mer gliadin peptide complex on Ba/F3 cells (human); assay: FACS, Ba/F3 cells; IC17=0%, DQN0139bb=100%
T15 construct: whole, on cells; also called Ba/F3-HLA-DQ2.5/26mer gliadin
Source text: as §1

[20] = target: DQ2.5/omega 2 gliadin peptide on IHW9023 cells (human); assay: cell-based or functional assay
[21] = target: DQ2.5/gamma 1 gliadin peptide on IHW9023 cells (human); assay: cell-based or functional assay
[22] = target: DQ2.5/gamma 2 gliadin peptide on IHW9023 cells (human); assay: cell-based or functional assay
[23] = target: DQ2.5/BC hordein peptide on IHW9023 cells (human); assay: cell-based or functional assay
[24] = target: DQ2.5/gamma 4a gliadin peptide on IHW9023 cells (human); assay: cell-based or functional assay
[25] = target: T16, HLA-DQ2.5/CLIP peptide complex on Ba/F3 cells (human); assay: FACS, Ba/F3 cells; IC17=0%, DQN0139bb=100%
T16 construct: whole, on cells; also called Ba/F3-HLA-DQ2.5/CLIP
Source text: as §1

[26] = target: T17, HLA-DQ2.5/gamma 2 gliadin peptide complex on Ba/F3 cells (human); assay: FACS, Ba/F3 cells; IC17=0%, DQN0139bb=100%
T17 construct: whole, on cells; also called Ba/F3-HLA-DQ2.5/gamma 2 gliadin; HLA-DQ2.5/g2 gliadin
Source text: as §1

[27] = target: T18, HLA-DQ2.5/omega 2 gliadin peptide complex on Ba/F3 cells (human); assay: FACS, Ba/F3 cells; IC17=0%, DQN0139bb=100%
T18 construct: whole, on cells; also called Ba/F3-HLA-DQ2.5/omega 2 gliadin; HLA-DQ2.5/w2 gliadin
Source text: as §1

[28] = target: T19, HLA-DQ2.5/BC hordein peptide complex on Ba/F3 cells (human); assay: FACS, Ba/F3 cells; IC17=0%, DQN0139bb=100%
T19 construct: whole, on cells; also called Ba/F3-HLA-DQ2.5/BC hordein
Source text: as §1

[29] = target: T20, HLA-DQ2.5/hordein 2 peptide complex on Ba/F3 cells (human); assay: FACS, Ba/F3 cells; IC17=0%, DQN0139bb=100%
T20 construct: whole, on cells; also called Ba/F3-HLA-DQ2.5/hordein 2
Source text: as §1

[30] = target: T21, HLA-DQ2.5/14mer 1 peptide complex on Ba/F3 cells (human); assay: FACS, Ba/F3 cells; IC17=0%, DQN0139bb=100%
T21 construct: whole, on cells; also called Ba/F3-HLA-DQ2.5/14mer 1
Source text: as §1

[31] = target: T22, HLA-DQ2.5 on HLA-DQ2.5-positive PBMC B cells (human, UniProt P01909 24-254; P01920 33-261); assay: FACS, PBMC B cells; IC17=0%, DQN0139bb=100%
T22 construct: whole, on cells; also called HLA-DQ2.5+ PBMC B cell
T22 MHC II alpha: not shown
T22 MHC II beta: not shown

[32] = target: HLA-DQ2.5/33mer gliadin peptide on IHW9088 cells (human); assay: cell-based or functional assay

T16 sequence (P04233 96-124, chain 2 of 2, other chains not shown): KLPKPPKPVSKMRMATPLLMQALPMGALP

B1: DQN0344xx (antibody, V domains shown)
VH: QSLEESGGGLVKPGGTLTLTCTASGFSFSSSYWMCWVRQAPGKGLEWVACVYGGSDTTYYASWTKGRFTISKGSSTTVALQVTSLTAADTATYFCARDPLNYYYYGELNLWGPGTLVTVSS
VL: AVVLTQTASPVSAAVGGTVTIRCQATENIYSGLAWYQQKPGQPPKVLIYYVSTLASGVPSRFKGSGSGTEYTLTISGVQCDDAATYYCQTYHDISNVTFGGGTKVEIK
[1]
  IC50, Jurkat NFAT-Luc T cell activation: 9.98 ng/mL
[2]
  IC50, Jurkat NFAT-Luc T cell activation: 0.82 ng/mL
[3]
  IC50, Jurkat NFAT-Luc T cell activation: 12.4 ng/mL
[4]
  IC50, Jurkat NFAT-Luc T cell activation: 27.2 ng/mL
[5]
  % MFI: 107%
[6]
  % MFI: 77.1%
[7]
  % MFI: 69.5%
[8]
  % MFI: 0.4%
[9]
  % MFI: 49.5%
[10]
  % MFI: 42.2%
[11]
  % MFI: 66.6%
[12]
  % MFI: 1%
[13]
  % MFI: 60.9%
[14]
  % MFI: 48.6%
[15]
  % MFI: 48.4%
[16]
  % MFI: 18.8%
[17]
  % MFI: 52.2%
[18]
  % MFI: 37.6%
[19]
  % MFI: 3.2%

B2: DQN0385ee (antibody, V domains shown)
VH: QEQLEESGGDLVKPGASLTLTCTASGFSFYSSYWICWVRQAPGKGLEWIACIDTGSGSIDYASWVNGRFTISKTSSTTVTLQMTSLTVADTATYFCARDIGIDYNFWGPGTLVTVSS
VL: AFELTQTPSFVEAAVGGTVTIKCQATQSISSYLNWYQQKPGQPPKLLIYYASTLASGVPSRFKGSGSGTEFSLTISGVECADAATYYCHYGISYVSFGGGTKVEIK
notes: also called DQN0385xx
[2]
  IC50, Jurkat NFAT-Luc T cell activation: 0.264 ng/mL
[20]
  IC50, Jurkat NFAT-Luc T cell activation: 0.758 ng/mL
[21]
  IC50, Jurkat NFAT-Luc T cell activation: 21.7 ng/mL
[22]
  IC50, Jurkat NFAT-Luc T cell activation: 4900 ng/mL
[23]
  IC50, Jurkat NFAT-Luc T cell activation: 16.4 ng/mL
[4]
  IC50, Jurkat NFAT-Luc T cell activation: 640 ng/mL
[24]
  IC50, Jurkat NFAT-Luc T cell activation: 381 ng/mL
[25]
  % MFI: 4.4%
[5]
  % MFI: 56.2%
[6]
  % MFI: 9.7%
[7]
  % MFI: 70.9%
[8]
  % MFI: 57.7%
[26]
  % MFI: 20.6%
[9]
  % MFI: 16.5%
[27]
  % MFI: 53%
[28]
  % MFI: 61.8%
[10]
  % MFI: 59.7%
[11]
  % MFI: 20.3%
[12]
  % MFI: 53.6%
[13]
  % MFI: 19.1%
[14]
  % MFI: 28%
[16]
  % MFI: 18.2%
[29]
  % MFI: 71.4%
[18]
  % MFI: 32.5%
[30]
  % MFI: 70.7%
[19]
  % MFI: 70.8%
[31]
  % MFI: 1%

B3: DQN0139bb (antibody, V domains shown)
VH: QSLEESGGRLVTPGTALTLTCTVSGFSLSSYAMGWVRQAPGKGLEYIGWTSPGDSAYYASWTKGRFTISRTSTTVELKITSPTTEDTATYFCARDAAYIGHWAFNLWGPGTLVTVSS
VL: DVVMTQTPASVSAPVGGTVTINCQASESIYSNLAWYQQKPGQPPKLLIYGASTLESGVPSRVKGSGYGTQFTLTISDLECADAATYYCQQYYGSSSTAFTFGGGTKVEIK
[1]
  IC50, Jurkat NFAT-Luc T cell activation: 73.5 ng/mL
[2]
  IC50, Jurkat NFAT-Luc T cell activation: 60.5 ng/mL
[3]
  IC50, Jurkat NFAT-Luc T cell activation: 71.9 ng/mL
[20]
  IC50, Jurkat NFAT-Luc T cell activation: 248 ng/mL
[21]
  IC50, Jurkat NFAT-Luc T cell activation: 119 ng/mL
[23]
  IC50, Jurkat NFAT-Luc T cell activation: 75.9 ng/mL
[4]
  IC50, Jurkat NFAT-Luc T cell activation: 76.5 ng/mL
[24]
  IC50, Jurkat NFAT-Luc T cell activation: 76.9 ng/mL
[32]
  IC50 (read off the curve): ~0.03 microgram/mL
